The values below come from the supplement of paper PMC9112550, “Optimization of the antimicrobial peptide Bac7 by deep mutational scanning” (BMC Biology, 2022).
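Further: peptides expressed intracellularly from a pBAD plasmid library in pooled LB shake-flask culture, induced with 0.3% L-arabinose, DNA abundance read by NGS, three biological replicates, DESeq2 with apeglm shrinkage.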

The data set has as its system Escherichia coli TOP10. Kind of data set: shrunken log2 fold change of peptide-encoding DNA abundance (4.5 h post-induction vs induction); higher = less antimicrobial activity (less host growth inhibition). To be noted: time post-induction: 4.5 h; library: site-saturation at positions 5, 18, 19, 20.
For the sequence RRIRFRPPRLPRPRPRPFMTPRP, the “shrunken log2 fold change” value was -0.333.

Take RRIRARPPRLPRPRPRPMTWPRP: the “shrunken log2 fold change” value is 0.307.

RRIRCRPPRLPRPRPRPFVDPRP: the “shrunken log2 fold change” value is -0.307.

As for RRIRCRPPRLPRPRPRPDTHPRP, the “shrunken log2 fold change” value was -0.716.

Regarding RRIRDRPPRLPRPRPRPTPMPRP, the “shrunken log2 fold change” value amounted to 0.234.

With RRIRGRPPRLPRPRPRPRVMPRP, the “shrunken log2 fold change” value came out at 0.473.

RRIRERPPRLPRPRPRPEPSPRP: the “shrunken log2 fold change” value is 0.0429.

Regarding RRIRFRPPRLPRPRPRPEHFPRP, the “shrunken log2 fold change” value is -0.213.

RRIRPRPPRLPRPRPRPTFRPRP: the “shrunken log2 fold change” value was found to be 0.0885.

On to RRIRMRPPRLPRPRPRPMNVPRP, for which the “shrunken log2 fold change” value was -0.147.

In the case of RRIRGRPPRLPRPRPRPCDMPRP, the “shrunken log2 fold change” value worked out at 0.22.

With RRIRLRPPRLPRPRPRPIYGPRP, the “shrunken log2 fold change” value is 0.0275.

In the case of RRIRKRPPRLPRPRPRPSHNPRP, the “shrunken log2 fold change” value was -0.351.

As to RRIRWRPPRLPRPRPRPVPCPRP, the “shrunken log2 fold change” value was -0.00353.

As to RRIRVRPPRLPRPRPRPPYAPRP, the “shrunken log2 fold change” value is -0.00506.

Regarding RRIRDRPPRLPRPRPRPWNKPRP, the “shrunken log2 fold change” value was -0.117.

In the case of RRIRARPPRLPRPRPRPKLEPRP, the “shrunken log2 fold change” value was 0.623.

As to RRIRKRPPRLPRPRPRPRGFPRP, the “shrunken log2 fold change” value worked out at 0.18.

Regarding RRIRQRPPRLPRPRPRPQGEPRP, the “shrunken log2 fold change” value was -0.154.

With RRIRERPPRLPRPRPRPCEPPRP, the “shrunken log2 fold change” value was 0.123.

On to RRIRVRPPRLPRPRPRPMPMPRP, for which the “shrunken log2 fold change” value stood at 0.0529.

Turning to RRIRLRPPRLPRPRPRPRFWPRP, the “shrunken log2 fold change” value is 0.486.

Consider RRIRHRPPRLPRPRPRPNYAPRP, for which the “shrunken log2 fold change” value was found to be 0.0414.

As to RRIRDRPPRLPRPRPRPELIPRP, the “shrunken log2 fold change” value stood at 0.0219.

As for RRIRVRPPRLPRPRPRPCTQPRP, the “shrunken log2 fold change” value is -0.322.

In the case of RRIRHRPPRLPRPRPRPQERPRP, the “shrunken log2 fold change” value is -0.0325.

In the case of RRIRGRPPRLPRPRPRPISRPRP, the “shrunken log2 fold change” value is 0.0494.

Take RRIRGRPPRLPRPRPRPHCVPRP: the “shrunken log2 fold change” value worked out at 0.517.

For RRIRTRPPRLPRPRPRPPMAPRP, the “shrunken log2 fold change” value was 0.176.

RRIRFRPPRLPRPRPRPDMKPRP: the “shrunken log2 fold change” value is -0.25.

In the case of RRIRWRPPRLPRPRPRPSVAPRP, the “shrunken log2 fold change” value was found to be 0.491.

Consider RRIRQRPPRLPRPRPRPGTLPRP, for which the “shrunken log2 fold change” value is -0.0134.

For the sequence RRIRPRPPRLPRPRPRPTFNPRP, the “shrunken log2 fold change” value is -0.155.

With RRIRARPPRLPRPRPRPVMAPRP, the “shrunken log2 fold change” value was found to be 0.567.

With RRIRGRPPRLPRPRPRPMTYPRP, the “shrunken log2 fold change” value stood at 0.274.

RRIRRRPPRLPRPRPRPHCEPRP: the “shrunken log2 fold change” value is -0.169.

With RRIRDRPPRLPRPRPRPAFRPRP, the “shrunken log2 fold change” value was found to be 0.293.

Take RRIRMRPPRLPRPRPRPKHFPRP: the “shrunken log2 fold change” value was found to be 0.176.

For RRIRYRPPRLPRPRPRPIFTPRP, the “shrunken log2 fold change” value was -0.212.

In the case of RRIRHRPPRLPRPRPRPYRRPRP, the “shrunken log2 fold change” value is -0.142.

Take RRIRKRPPRLPRPRPRPFLGPRP: the “shrunken log2 fold change” value was 0.0561.

Regarding RRIRRRPPRLPRPRPRPHESPRP, the “shrunken log2 fold change” value came out at 0.0784.

For the sequence RRIRGRPPRLPRPRPRPPMTPRP, the “shrunken log2 fold change” value was determined as 0.895.

Regarding RRIRWRPPRLPRPRPRPFARPRP, the “shrunken log2 fold change” value stood at 0.188.

In the case of RRIRFRPPRLPRPRPRPTPWPRP, the “shrunken log2 fold change” value was found to be 0.421.

As for RRIRTRPPRLPRPRPRPCPMPRP, the “shrunken log2 fold change” value was 0.00574.

For RRIRLRPPRLPRPRPRPAIDPRP, the “shrunken log2 fold change” value is -0.283.

Regarding RRIRIRPPRLPRPRPRPECCPRP, the “shrunken log2 fold change” value is 0.0559.

Regarding RRIRRRPPRLPRPRPRPHHAPRP, the “shrunken log2 fold change” value was -0.0424.

As for RRIRVRPPRLPRPRPRPESCPRP, the “shrunken log2 fold change” value came out at 0.242.

For the sequence RRIRFRPPRLPRPRPRPHMKPRP, the “shrunken log2 fold change” value is -0.585.

For RRIRSRPPRLPRPRPRPQGDPRP, the “shrunken log2 fold change” value worked out at 0.36.

As for RRIRLRPPRLPRPRPRPKRNPRP, the “shrunken log2 fold change” value was found to be 0.225.

RRIRSRPPRLPRPRPRPALGPRP: the “shrunken log2 fold change” value turned out to be 0.505.

Consider RRIRTRPPRLPRPRPRPMHAPRP, for which the “shrunken log2 fold change” value is -0.112.

For the sequence RRIRTRPPRLPRPRPRPSMTPRP, the “shrunken log2 fold change” value is -0.401.

On to RRIRHRPPRLPRPRPRPGIRPRP, for which the “shrunken log2 fold change” value was -0.00441.

Take RRIRHRPPRLPRPRPRPTMEPRP: the “shrunken log2 fold change” value was -0.0987.

Take RRIRYRPPRLPRPRPRPWMAPRP: the “shrunken log2 fold change” value was -0.288.

As for RRIRIRPPRLPRPRPRPCGVPRP, the “shrunken log2 fold change” value is -0.153.

For RRIRARPPRLPRPRPRPLYVPRP, the “shrunken log2 fold change” value was -0.0921.

Regarding RRIRKRPPRLPRPRPRPIIQPRP, the “shrunken log2 fold change” value came to 0.0837.

As to RRIRIRPPRLPRPRPRPRNLPRP, the “shrunken log2 fold change” value was -0.306.

As to RRIRTRPPRLPRPRPRPKCVPRP, the “shrunken log2 fold change” value is -0.138.

As for RRIRQRPPRLPRPRPRPYVQPRP, the “shrunken log2 fold change” value is -0.00748.

Regarding RRIRRRPPRLPRPRPRPQKSPRP, the “shrunken log2 fold change” value is -0.106.

On to RRIRCRPPRLPRPRPRPMLLPRP, for which the “shrunken log2 fold change” value turned out to be 0.00507.

As for RRIRGRPPRLPRPRPRPYGSPRP, the “shrunken log2 fold change” value was -0.303.

As to RRIRQRPPRLPRPRPRPTSVPRP, the “shrunken log2 fold change” value is 0.0377.

For RRIRPRPPRLPRPRPRPTIVPRP, the “shrunken log2 fold change” value came out at 0.121.

Turning to RRIRKRPPRLPRPRPRPYMDPRP, the “shrunken log2 fold change” value is -0.763.

Consider RRIRHRPPRLPRPRPRPNRLPRP, for which the “shrunken log2 fold change” value worked out at 0.0234.

On to RRIRTRPPRLPRPRPRPNVIPRP, for which the “shrunken log2 fold change” value is -0.372.

Consider RRIRIRPPRLPRPRPRPPREPRP, for which the “shrunken log2 fold change” value worked out at 0.535.

Regarding RRIRWRPPRLPRPRPRPKNAPRP, the “shrunken log2 fold change” value worked out at 0.202.

Turning to RRIRTRPPRLPRPRPRPDLYPRP, the “shrunken log2 fold change” value was 0.0261.

RRIRLRPPRLPRPRPRPTPHPRP: the “shrunken log2 fold change” value is 0.322.

Consider RRIRERPPRLPRPRPRPHQDPRP, for which the “shrunken log2 fold change” value was -0.0312.

As for RRIRYRPPRLPRPRPRPLTMPRP, the “shrunken log2 fold change” value was -0.529.

Turning to RRIRFRPPRLPRPRPRPWMNPRP, the “shrunken log2 fold change” value was -0.708.

For the sequence RRIRWRPPRLPRPRPRPAGAPRP, the “shrunken log2 fold change” value was determined as 0.392.

RRIRPRPPRLPRPRPRPMMIPRP: the “shrunken log2 fold change” value is 0.0824.

For RRIRRRPPRLPRPRPRPWDWPRP, the “shrunken log2 fold change” value was determined as 0.428.

As to RRIRPRPPRLPRPRPRPWDRPRP, the “shrunken log2 fold change” value worked out at 0.0969.

For the sequence RRIRHRPPRLPRPRPRPQTCPRP, the “shrunken log2 fold change” value is -0.653.

Turning to RRIRCRPPRLPRPRPRPLVEPRP, the “shrunken log2 fold change” value was 0.102.

As for RRIRWRPPRLPRPRPRPYKGPRP, the “shrunken log2 fold change” value is -0.0487.

With RRIRRRPPRLPRPRPRPHIQPRP, the “shrunken log2 fold change” value is -0.114.

For the sequence RRIRSRPPRLPRPRPRPQLDPRP, the “shrunken log2 fold change” value was -0.191.

In the case of RRIRTRPPRLPRPRPRPIDAPRP, the “shrunken log2 fold change” value was -0.0859.

Consider RRIRARPPRLPRPRPRPDHVPRP, for which the “shrunken log2 fold change” value came out at 0.0166.

Consider RRIRKRPPRLPRPRPRPTNSPRP, for which the “shrunken log2 fold change” value is -0.241.

Consider RRIRIRPPRLPRPRPRPNYQPRP, for which the “shrunken log2 fold change” value is -0.43.

With RRIRRRPPRLPRPRPRPWTGPRP, the “shrunken log2 fold change” value was -0.444.

Turning to RRIRMRPPRLPRPRPRPGYDPRP, the “shrunken log2 fold change” value was 0.0865.

With RRIRHRPPRLPRPRPRPDDIPRP, the “shrunken log2 fold change” value is -0.0131.

As to RRIRWRPPRLPRPRPRPYIGPRP, the “shrunken log2 fold change” value is -0.127.

Turning to RRIRLRPPRLPRPRPRPTNIPRP, the “shrunken log2 fold change” value was -0.421.

As to RRIRVRPPRLPRPRPRPFADPRP, the “shrunken log2 fold change” value was -0.0225.

With RRIRFRPPRLPRPRPRPKHMPRP, the “shrunken log2 fold change” value was -0.52.

Turning to RRIRWRPPRLPRPRPRPEQNPRP, the “shrunken log2 fold change” value worked out at 0.117.

With RRIRLRPPRLPRPRPRPPFGPRP, the “shrunken log2 fold change” value came to 0.0044.

As to RRIRERPPRLPRPRPRPMNMPRP, the “shrunken log2 fold change” value is -0.176.

As to RRIRVRPPRLPRPRPRPQFAPRP, the “shrunken log2 fold change” value is 0.133.

Turning to RRIRARPPRLPRPRPRPMHAPRP, the “shrunken log2 fold change” value was found to be 0.409.

As to RRIRCRPPRLPRPRPRPPQHPRP, the “shrunken log2 fold change” value was 0.49.

Turning to RRIRVRPPRLPRPRPRPQIWPRP, the “shrunken log2 fold change” value was -0.192.

With RRIRSRPPRLPRPRPRPQAGPRP, the “shrunken log2 fold change” value is 0.165.

Turning to RRIRIRPPRLPRPRPRPKTFPRP, the “shrunken log2 fold change” value is -0.0578.

Turning to RRIRKRPPRLPRPRPRPHCGPRP, the “shrunken log2 fold change” value is -0.0593.

Regarding RRIRRRPPRLPRPRPRPCSSPRP, the “shrunken log2 fold change” value is 0.0589.

In the case of RRIRERPPRLPRPRPRPAQMPRP, the “shrunken log2 fold change” value was 0.392.

In the case of RRIRVRPPRLPRPRPRPVSGPRP, the “shrunken log2 fold change” value came to 0.0836.

In the case of RRIRARPPRLPRPRPRPNPDPRP, the “shrunken log2 fold change” value was 0.571.

Regarding RRIRWRPPRLPRPRPRPSHRPRP, the “shrunken log2 fold change” value is -0.271.

In the case of RRIRKRPPRLPRPRPRPWGPPRP, the “shrunken log2 fold change” value was -0.125.

Consider RRIRSRPPRLPRPRPRPNLNPRP, for which the “shrunken log2 fold change” value was -0.307.

In the case of RRIRPRPPRLPRPRPRPRYCPRP, the “shrunken log2 fold change” value is -0.191.

As to RRIRDRPPRLPRPRPRPLQHPRP, the “shrunken log2 fold change” value worked out at 0.0148.

As for RRIRARPPRLPRPRPRPPIEPRP, the “shrunken log2 fold change” value is 0.188.

On to RRIRLRPPRLPRPRPRPRRWPRP, for which the “shrunken log2 fold change” value was 0.497.

As to RRIRNRPPRLPRPRPRPLEGPRP, the “shrunken log2 fold change” value is 0.033.

Regarding RRIRGRPPRLPRPRPRPLRKPRP, the “shrunken log2 fold change” value turned out to be 1.12.

Regarding RRIRGRPPRLPRPRPRPEHIPRP, the “shrunken log2 fold change” value was 0.19.

Consider RRIRNRPPRLPRPRPRPRYLPRP, for which the “shrunken log2 fold change” value was -0.547.
